Results as given in patent publication US20200317768A1 (published 2020).

T1: human FcγRIIaH extracellular domain with C-terminal His-tag (human, UniProt P12318 34-217)
T1 construct: Expressed in FreeStyle 293 cells and purified; also called human FcγRIIa (type H); FcgRIIaH; not shown: C-terminal His-tag
T1 sequence: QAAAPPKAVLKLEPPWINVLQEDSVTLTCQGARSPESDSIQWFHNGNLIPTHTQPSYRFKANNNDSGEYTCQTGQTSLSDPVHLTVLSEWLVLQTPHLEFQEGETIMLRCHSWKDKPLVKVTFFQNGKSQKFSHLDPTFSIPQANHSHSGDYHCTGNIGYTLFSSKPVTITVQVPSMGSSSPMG

T2: cynomolgus monkey FcγRIIa1 extracellular domain with C-terminal His-tag (cynomolgus monkey)
T2 construct: Expressed in FreeStyle 293 cells and purified; also called cyno FcγRIIa1; cynoFcgRIIa1; not shown: C-terminal His-tag
T2 chain: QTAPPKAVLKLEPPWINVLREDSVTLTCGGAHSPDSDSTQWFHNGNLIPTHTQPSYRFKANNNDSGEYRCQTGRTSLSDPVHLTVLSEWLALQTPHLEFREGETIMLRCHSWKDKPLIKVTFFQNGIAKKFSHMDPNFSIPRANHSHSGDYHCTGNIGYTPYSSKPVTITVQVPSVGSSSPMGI

T3: human FcγRIIb extracellular domain with C-terminal His-tag (human, UniProt P31994 43-217)
T3 construct: Expressed in FreeStyle 293 cells and purified; also called humanFcgRIIb; not shown: C-terminal His-tag
T3 sequence: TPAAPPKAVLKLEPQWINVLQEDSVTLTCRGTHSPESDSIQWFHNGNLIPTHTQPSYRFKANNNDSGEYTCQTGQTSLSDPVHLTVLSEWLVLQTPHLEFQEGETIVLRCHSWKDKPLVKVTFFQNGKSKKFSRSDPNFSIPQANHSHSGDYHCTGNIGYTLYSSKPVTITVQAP

T4: cynomolgus monkey FcγRIIb extracellular domain with C-terminal His-tag (cynomolgus monkey)
T4 construct: Expressed in FreeStyle 293 cells and purified; also called cyno FcγRIIb; cynoFcγRIIb; not shown: C-terminal His-tag
T4 chain: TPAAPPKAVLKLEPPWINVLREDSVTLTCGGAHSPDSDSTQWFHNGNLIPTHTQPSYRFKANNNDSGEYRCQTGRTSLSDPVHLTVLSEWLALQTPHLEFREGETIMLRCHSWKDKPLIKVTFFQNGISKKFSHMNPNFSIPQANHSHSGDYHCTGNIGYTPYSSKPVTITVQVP

T5: cynomolgus monkey FcγRIIIaS extracellular domain with C-terminal His-tag (cynomolgus monkey, UniProt Q8SPW2 21-206 at identity 1.00))
T5 construct: Expressed in FreeStyle 293 cells and purified; also called cyno FcγRIIIaS; cynoFcγRIIIaS; not shown: C-terminal His-tag
T5 chain: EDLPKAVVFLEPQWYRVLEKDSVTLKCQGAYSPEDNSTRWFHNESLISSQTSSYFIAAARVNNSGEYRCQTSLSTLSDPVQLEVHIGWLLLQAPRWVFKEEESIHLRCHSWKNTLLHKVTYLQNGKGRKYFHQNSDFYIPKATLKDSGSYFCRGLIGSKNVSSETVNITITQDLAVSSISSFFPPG

T6: cynomolgus monkey FcγRIIa2 extracellular domain with C-terminal His-tag (cynomolgus monkey)
T6 construct: Expressed in FreeStyle 293 cells and purified; also called cyno FcγRIIa2; cynoFcgRIIa2; not shown: C-terminal His-tag
T6 chain: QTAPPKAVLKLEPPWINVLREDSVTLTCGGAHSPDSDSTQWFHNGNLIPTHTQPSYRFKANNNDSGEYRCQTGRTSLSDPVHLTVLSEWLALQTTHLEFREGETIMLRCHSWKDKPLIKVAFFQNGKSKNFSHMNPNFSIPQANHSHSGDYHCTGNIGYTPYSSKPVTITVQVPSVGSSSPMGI

T7: cynomolgus monkey FcγRIIa3 extracellular domain with C-terminal His-tag (cynomolgus monkey)
T7 construct: Expressed in FreeStyle 293 cells and purified; also called cyno FcγRIIa3; cynoFcgRIIa3; not shown: C-terminal His-tag
T7 chain: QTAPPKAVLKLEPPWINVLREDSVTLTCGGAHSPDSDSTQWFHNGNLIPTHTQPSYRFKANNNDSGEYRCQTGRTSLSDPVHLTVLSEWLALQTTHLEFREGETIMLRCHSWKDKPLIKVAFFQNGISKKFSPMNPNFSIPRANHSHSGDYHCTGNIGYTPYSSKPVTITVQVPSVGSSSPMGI


Assays:
Assay in all cases: SPR (Biacore); KD of SG1 divided by KD of the variant for this FcgR;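 note: relative to parent M103205H795-SG1 carrying the SG1 human heavy chain constant region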
[1] = target: T8, human FcγRIIIaV extracellular domain with C-terminal His-tag (human, UniProt P08637 17-208)
T8 construct: Expressed in FreeStyle 293 cells and purified; also called FcgRIIIaV; not shown: C-terminal His-tag

[2] = target: T1, human FcγRIIaH extracellular domain …
[3] = target: T2, cynomolgus monkey FcγRIIa1 …
[4] = target: T3, human FcγRIIb extracellular domain with …
[5] = target: T4, cynomolgus monkey FcγRIIb extracellular …
[6] = target: T5, cynomolgus monkey FcγRIIIaS …
[7] = target: T6, cynomolgus monkey FcγRIIa2 …
[8] = target: T7, cynomolgus monkey FcγRIIa3 …

T8 sequence (P08637 17-208 F176V): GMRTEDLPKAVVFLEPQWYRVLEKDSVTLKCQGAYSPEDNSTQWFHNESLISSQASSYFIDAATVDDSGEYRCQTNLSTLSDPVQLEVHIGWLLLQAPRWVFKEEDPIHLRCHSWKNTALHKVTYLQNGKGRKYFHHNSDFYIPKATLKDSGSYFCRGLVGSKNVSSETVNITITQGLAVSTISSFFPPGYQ

| KD fold (SG1 = 1) [1] [fold] | KD fold (SG1 = 1) [2] [fold] | KD fold (SG1 = 1) [3] [fold] | KD fold (SG1 = 1) [4] [fold] | KD fold (SG1 = 1) [5] [fold] | KD fold (SG1 = 1) [6] [fold] | KD fold (SG1 = 1) [7] [fold] | KD fold (SG1 = 1) [8] [fold] | Binder |
| --- | --- | --- | --- | --- | --- | --- | --- | --- |
| 0.12 | 0.4 | 1.2 | 2.6 | 1.5 | 0.11 | 1.5 | 1.5 | M103205H795-MY172 / M103202L889-SK1 (antibody, human IgG1, kappa, Position 396 variant derived from MY052, expressed with M103202L889-SK1 as light chain) heavy: QVTLKESGPVLVKPTETLTLTCTVSGIDLSHDDISWVRQAPGKGLEWVGIISYAGSTYYASWAKGRLTISKDTSKNQVVLTMTNMDPVDTATYYCARGVPAYSHGGDLWGQGTLVTVSSASTKGPSVFPLAPSSKSTSGGTAALGCLVKDYFPEPVTVSWNSGALTSGVHTFPAVLQSSGLYSLSSVVTVPSSSLGTQTYICNVNHKPSNTKVDKKVEPKSCDKTHTCPPCPAPELLNGPSVFLFPPKPKDTLMISRTPEVTCVVVDVSEEDPEVKFNWYVDGVEVHNAKTKPREEQYNSTYRVVSVLTVLHQDWLNGKEYKCKVSNKALPAPIEKTISKAKGQPREPQVYTLPPSREEMTKNQVSLTCLVKGFYPSDIAVEWESNGQPENNYKTTPGVLDSDGSFFLYSKLTVDKSRWQQGNVFSCSVMHEALHNHYTQKSLSLSP light: DIVMTQSPATLSLSPGERATLSCTSSQSVYHANWLSWFQQKPGQPPKLLIYWASTLAYGVPSRFSGSGSGTDFTLTISSLQPEDAATYYCAGGYGGGRYAFGQGTKVEIKRTVAAPSVFIFPPSDEQLKSGTASVVCLLNNFYPREAKVQWKVDNALQSGNSQESVTEQDSKDSTYSLSSTLTLSKADYEKHKVYACEVTHQGLSSPVTKSFNRGEC |
| 0.11 | 0.8 | 2.3 | 5.5 | 2.5 | 0.14 | 3.4 | 2.5 | M103205H795-MY175 / M103202L889-SK1 (antibody, human IgG1, kappa, Position 396 variant derived from MY052, expressed with M103202L889-SK1 as light chain) heavy: QVTLKESGPVLVKPTETLTLTCTVSGIDLSHDDISWVRQAPGKGLEWVGIISYAGSTYYASWAKGRLTISKDTSKNQVVLTMTNMDPVDTATYYCARGVPAYSHGGDLWGQGTLVTVSSASTKGPSVFPLAPSSKSTSGGTAALGCLVKDYFPEPVTVSWNSGALTSGVHTFPAVLQSSGLYSLSSVVTVPSSSLGTQTYICNVNHKPSNTKVDKKVEPKSCDKTHTCPPCPAPELLNGPSVFLFPPKPKDTLMISRTPEVTCVVVDVSEEDPEVKFNWYVDGVEVHNAKTKPREEQYNSTYRVVSVLTVLHQDWLNGKEYKCKVSNKALPAPIEKTISKAKGQPREPQVYTLPPSREEMTKNQVSLTCLVKGFYPSDIAVEWESNGQPENNYKTTPKVLDSDGSFFLYSKLTVDKSRWQQGNVFSCSVMHEALHNHYTQKSLSLSP light: DIVMTQSPATLSLSPGERATLSCTSSQSVYHANWLSWFQQKPGQPPKLLIYWASTLAYGVPSRFSGSGSGTDFTLTISSLQPEDAATYYCAGGYGGGRYAFGQGTKVEIKRTVAAPSVFIFPPSDEQLKSGTASVVCLLNNFYPREAKVQWKVDNALQSGNSQESVTEQDSKDSTYSLSSTLTLSKADYEKHKVYACEVTHQGLSSPVTKSFNRGEC |
| 0.12 | 0.9 | 2.1 | 5.4 | 2.8 | 0.14 | 3.2 | 2.7 | M103205H795-MY174 / M103202L889-SK1 (antibody, human IgG1, kappa, Position 396 variant derived from MY052, expressed with M103202L889-SK1 as light chain) heavy: QVTLKESGPVLVKPTETLTLTCTVSGIDLSHDDISWVRQAPGKGLEWVGIISYAGSTYYASWAKGRLTISKDTSKNQVVLTMTNMDPVDTATYYCARGVPAYSHGGDLWGQGTLVTVSSASTKGPSVFPLAPSSKSTSGGTAALGCLVKDYFPEPVTVSWNSGALTSGVHTFPAVLQSSGLYSLSSVVTVPSSSLGTQTYICNVNHKPSNTKVDKKVEPKSCDKTHTCPPCPAPELLNGPSVFLFPPKPKDTLMISRTPEVTCVVVDVSEEDPEVKFNWYVDGVEVHNAKTKPREEQYNSTYRVVSVLTVLHQDWLNGKEYKCKVSNKALPAPIEKTISKAKGQPREPQVYTLPPSREEMTKNQVSLTCLVKGFYPSDIAVEWESNGQPENNYKTTPIVLDSDGSFFLYSKLTVDKSRWQQGNVFSCSVMHEALHNHYTQKSLSLSP light: DIVMTQSPATLSLSPGERATLSCTSSQSVYHANWLSWFQQKPGQPPKLLIYWASTLAYGVPSRFSGSGSGTDFTLTISSLQPEDAATYYCAGGYGGGRYAFGQGTKVEIKRTVAAPSVFIFPPSDEQLKSGTASVVCLLNNFYPREAKVQWKVDNALQSGNSQESVTEQDSKDSTYSLSSTLTLSKADYEKHKVYACEVTHQGLSSPVTKSFNRGEC |
| 0.12 | 0.7 | 1.9 | 4.6 | 2.3 | 0.12 | 2.8 | 2.1 | M103205H795-MY173 / M103202L889-SK1 (antibody, human IgG1, kappa, Position 396 variant derived from MY052, expressed with M103202L889-SK1 as light chain) heavy: QVTLKESGPVLVKPTETLTLTCTVSGIDLSHDDISWVRQAPGKGLEWVGIISYAGSTYYASWAKGRLTISKDTSKNQVVLTMTNMDPVDTATYYCARGVPAYSHGGDLWGQGTLVTVSSASTKGPSVFPLAPSSKSTSGGTAALGCLVKDYFPEPVTVSWNSGALTSGVHTFPAVLQSSGLYSLSSVVTVPSSSLGTQTYICNVNHKPSNTKVDKKVEPKSCDKTHTCPPCPAPELLNGPSVFLFPPKPKDTLMISRTPEVTCVVVDVSEEDPEVKFNWYVDGVEVHNAKTKPREEQYNSTYRVVSVLTVLHQDWLNGKEYKCKVSNKALPAPIEKTISKAKGQPREPQVYTLPPSREEMTKNQVSLTCLVKGFYPSDIAVEWESNGQPENNYKTTPHVLDSDGSFFLYSKLTVDKSRWQQGNVFSCSVMHEALHNHYTQKSLSLSP light: DIVMTQSPATLSLSPGERATLSCTSSQSVYHANWLSWFQQKPGQPPKLLIYWASTLAYGVPSRFSGSGSGTDFTLTISSLQPEDAATYYCAGGYGGGRYAFGQGTKVEIKRTVAAPSVFIFPPSDEQLKSGTASVVCLLNNFYPREAKVQWKVDNALQSGNSQESVTEQDSKDSTYSLSSTLTLSKADYEKHKVYACEVTHQGLSSPVTKSFNRGEC |
